# Data as given in the supplement of paper PMC10567573.
# B1: PPEF2 (parent)
# chain: DHSGFISLDEFRQTWKLFSSHMNI
# B2: NCF4 (parent)
# chain: FGPDSKSSALACTLPTLPAKVYVG
# Variants of: B1
# Assay: protein stability index of a GFP-peptide fusion (GPS, HEK-293T) (PSI 1-6); higher = more stable
# Settings: c terminus: a fixed tail appended
# 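Further: lentivirally expressed fusions sorted by FACS into six bins by GFP to DsRed ratio, PSI derived from sequencing read proportions per bin multiplied by bin number.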
row,Variant,protein stability index
1,S3Q,1.85
2,S3E,2.17
3,S3I,1.84
4,S3F,2.23
5,S3H,1.69
6,S3D,2
7,S3P,1.91
8,S3K,2.47
9,S3T,2.62
10,S3W,1.8
11,S3L,2.07
12,S3G,1.97
13,S3N,1.99
14,S3A,1.92
15,S3C,1.81
16,S3Y,2.27
17,S3R,2.58
18,S3M,1.69
19,S3V,1.46
20,D1V,2.56
21,D1E,1.4
22,D1I,3.63
23,D1F,2.27
24,D1T,2.84
25,D1N,3.49
26,D1R,1.95

row,Variant,protein stability index
1,D1S,4.12
2,D1A,1.51
3,D1W,2.08
4,D1M,1.94
5,D1L,3.93
6,D1H,1.38
7,D1P,2.12
8,D1C,2.13
9,D1Y,2.58
10,D1K,2.64
11,D1Q,2.4
12,D1G,1.47
13,S7D,1.47
14,S7Q,1.79
15,S7N,2.06
16,S7A,2.06
17,S7I,2.44
18,S7C,2.37
19,S7W,2.08
20,S7Y,1.97
21,S7R,2.1
22,S7K,1.69
23,S7M,2.3
24,S7G,2.95
25,S7E,1.86
26,S7P,1.44

row,Variant,protein stability index
1,S7H,1.83
2,S7L,1.83
3,S7F,2.52
4,S7T,2.04
5,E10C,1.95
6,E10G,1.26
7,E10I,1.58
8,E10W,1.87
9,E10F,1.72
10,E10L,2.49
11,E10S,1.35
12,E10P,2.26
13,E10N,2.85
14,E10V,2.88
15,E10M,2.26
16,E10D,1.71
17,E10Y,1.82
18,E10K,1.79
19,E10T,2.37
20,E10A,2.48
21,E10Q,1.96
22,E10H,2.25
23,E10R,1.6
24,I6L,1.65
25,I6W,1.82
26,I6R,2.08

row,Variant,protein stability index
1,I6Q,1.91
2,I6T,1.71
3,I6A,1.39
4,I6Y,1.89
5,I6N,1.6
6,I6P,2.02
7,I6F,1.03
8,I6D,1.62
9,I6G,1.28
10,I6K,1.94
11,I6E,1.66
12,I6M,2.32
13,I6S,1.75
14,I6C,1.86
15,I6H,1.71
16,I6V,1.41
17,F5Y,2.35
18,F5Q,1.73
19,F5L,1.92
20,F5C,1.66
21,F5R,1.28
22,F5G,2.5
23,F5T,1.54
24,F5S,1.85
25,F5M,1.4
26,F5I,1.86

row,Variant,protein stability index
1,F5V,1.53
2,F5K,1.52
3,F5W,1.93
4,F5A,1.33
5,F5H,1.77
6,F5D,1.41
7,F5P,2.12
8,F5E,1.65
9,F5N,2.13
10,G4P,1.98
11,G4Y,2.27
12,G4Q,2.47
13,G4W,1.98
14,G4L,2.95
15,G4T,1.95
16,G4F,2.5
17,G4M,1.65
18,G4C,2.41
19,G4A,2.89
20,G4E,2.16
21,G4D,1.78
22,G4V,3.22
23,G4H,2.28
24,G4K,1.31
25,G4N,2.69
26,G4S,1.51

row,Variant,protein stability index
1,G4I,2.78
2,G4R,1.87
3,H2K,2.01
4,H2R,1.34
5,H2T,1.72
6,H2Y,2.11
7,H2A,2.35
8,H2E,1.44
9,H2N,1.14
10,H2W,1.82
11,H2G,1.43
12,H2P,2.32
13,H2V,1.45
14,H2F,1.9
15,H2M,3.51
16,H2C,1.75
17,H2S,1.92
18,H2Q,1.75
19,H2D,1.86
20,H2I,1.91
21,H2L,1.25
22,F11G,2.52
23,F11A,1.32
24,F11R,2.01
25,F11H,1.95
26,F11E,2.37

row,Variant,protein stability index
1,F11D,1.61
2,F11N,1.51
3,F11C,1.94
4,F11M,2.14
5,F11L,3.54
6,F11Q,1.56
7,F11I,1.79
8,F11K,1.64
9,F11P,1.85
10,L8D,2.13
11,L8S,1.75
12,L8R,1.93
13,L8W,2.06
14,L8Y,1.87
15,L8H,2.44
16,L8C,1.71
17,L8T,2.09
18,L8V,2.74
19,L8N,1.62
20,L8F,2.59
21,L8E,1.85
22,L8K,1.97
23,L8I,2.24
24,L8G,2.13
25,L8P,1.9
26,L8Q,2.01

row,Variant,protein stability index
1,L8M,1.88
2,L8A,1.62
3,D9H,1.87
4,D9W,2.75
5,D9Q,2.2
6,D9Y,1.51
7,D9G,2.82
8,D9N,1.51
9,D9M,2.67
10,D9F,2.48
11,D9V,2.94
12,D9A,3.05
13,D9L,3.39
14,D9P,1.21
15,D9C,2.73
16,D9S,1.84
17,D9R,1.92
18,D9E,2.29
19,D9K,2.1
20,D9T,2.24
21,D9I,3.32

# Variants of: B2
# Assay: as above
# Settings: c terminus: a fixed tail appended
row,Variant,protein stability index
1,G24F,2.92
2,G24S,1.97
3,G24T,1.9
4,G24W,2.29
5,G24Q,2.22
6,G24A,1.83
7,G24C,1.65
8,G24H,2.08
9,G24I,1.74
10,G24L,2.56
11,G24N,1.85
12,G24P,1.68
13,G24Y,1.75
14,G24K,2.88
15,G24V,1.84
16,G24M,1.63
17,G24R,2.29
18,G24E,2.55
19,G24D,3.36
20,A19P,2.46
21,A19I,1.87
22,A19N,2.31

row,Variant,protein stability index
1,A19F,2.35
2,A19Q,1.91
3,A19H,2.17
4,A19E,2.56
5,A19V,2.76
6,A19R,2.47
7,A19S,2.14
8,A19D,2.6
9,A19T,2.05
10,A19L,1.41
11,A19K,2.38
12,A19W,1.26
13,A19Y,1.95
14,A19C,1.74
15,A19M,1.55
16,A19G,2.58
17,V23Q,2.36
18,V23I,2.29
19,V23D,3.21
20,V23W,2.07
21,V23A,2.29
22,V23E,2.81

row,Variant,protein stability index
1,V23F,1.78
2,V23P,2.77
3,V23L,2.67
4,V23Y,2.39
5,V23R,2.81
6,V23G,2.66
7,V23C,2.72
8,V23T,2.96
9,V23S,2.62
10,V23N,3.2
11,V23M,2.34
12,V23K,2.86
13,V23H,3.06
14,Y22Q,3.12
15,Y22E,2.85
16,Y22F,2.67
17,Y22N,2.94
18,Y22P,2.96
19,Y22A,2.71
20,Y22L,2.12
21,Y22H,2.87
22,Y22V,2.37

row,Variant,protein stability index
1,Y22D,2.83
2,Y22I,2.36
3,Y22C,2.63
4,Y22S,3.4
5,Y22K,2.95
6,Y22M,2.7
7,Y22W,1.67
8,Y22G,3.11
9,Y22R,3.24
10,Y22T,2.93
11,K20C,2.48
12,K20N,2.49
13,K20I,2.76
14,K20H,2.19
15,K20D,2.64
16,K20T,1.98
17,K20S,2.31
18,K20E,2.13
19,K20M,1.64
20,K20V,1.81
21,K20A,2.01
22,K20W,2.15

row,Variant,protein stability index
1,K20Q,2.08
2,K20R,2
3,K20G,2.38
4,K20Y,2.58
5,K20F,2.48
6,K20P,2.35
7,V21P,2.73
8,V21G,2.56
9,V21K,3.09
10,V21Y,2.1
11,V21E,3.17
12,V21W,2.63
13,V21H,2.44
14,V21I,1.91
15,V21M,1.8
16,V21D,3.28
17,V21Q,2.81
18,V21A,2.71
19,V21F,2
20,V21R,3.29
21,V21L,1.91
22,V21S,2.61

row,Variant,protein stability index
1,V21C,2.58
2,V21N,3.32
3,V21T,3.05
4,P18W,2.77
5,P18D,2.71
6,P18K,2.15
7,P18Q,2.02
8,P18G,2.12
9,P18S,1.65
10,P18I,3.81
11,P18H,2.26
12,P18V,1.55
13,P18N,2.24
14,P18E,2.23
15,P18C,1.52
16,P18Y,2.42
17,P18T,2.03
18,P18L,1.65
19,P18M,1.75
20,P18F,2.02
21,P18R,1.61
